According to the supplement of paper PMC7877785:
± gives the uncertainty stated by the source.

Experiment: self-splicing fitness, log relative to wild type (ln ratio); higher = more splicing; Tetrahymena group I intron in knt gene, E. coli kanamycin selection, DiMSum; sequences stand for … in CUCUCU…GGAGGGAAAAGUUAUCAGGCAUGCACCUGGUAGCUAGUCUUUAAACCAAUAGAUUGCAUCGGUUUAAAAGGCAAGACCGUCAAAUUGCGGGAAAGGGGUCAACAGCCGUUCAGUACCAAGUCUCAGGGGAAACUUUGAGAUGGCCUUGCAAAGGGUAUGGUAAUAAGCUGACGGACAUGGUCCUAACCACGCAGCCAAGUCCUAAGUCAACAGAUCUUCUGUUGAUAUGGAUGCAGUUCACAGACUAAAUGUCGGUCGGGGAAGAUGUAUUCUUCUCAUAAGAUAUAGUCGGACCUCUCCUUAAUGGGAGCUAGCGGAUGAAGUGAUGCAACACUGGAGCCGCUGGGAACUAAUUUGUAUGCGAAAGUAUAUUGAUUAGUUUUGGAGUACUCGUGGUCG
How it was run: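 A randomised library covering all eight P1ex-region intron nucleotides was built with the intron in the knt kanamycin-resistance gene on pET-22b(+) and held in E. coli BL21(DE3). Cells were grown overnight at 37°C or 30°C on LB agar, with or without 25 μg/mL kanamycin, plus 100 μg/mL carbenicillin, 50 μM IPTG and 0.2% rhamnose, and pooled colonies were amplicon-sequenced on an Illumina HiSeq 2500. DiMSum fitness is the error-weighted combination of wild-type-normalised replicate fold changes, kanamycin versus none.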

Row | Sequence | self-splicing fitness (ln) (30 °C) | self-splicing fitness (ln) (37 °C)
1 | AGGUAGCAAUAUUACGUUCC | -0.904 ± 0.018 | -0.623 ± 0.036
2 | AGGUAGCAAUAUUACGUUCU | -0.768 ± 0.014 | -0.545 ± 0.033
3 | AGUAAGCAAUAUUACGAAUA | -1.84 ± 0.38 | 
4 | AGUAAGCAAUAUUACGACAG | -2.95 ± 0.2 | -1.94 ± 0.22
5 | AGUAAGCAAUAUUACGAUCG | -0.735 ± 0.17 | -0.248 ± 0.19
6 | AGUAAGCAAUAUUACGAUCU | 0.14 ± 0.15 | -0.333 ± 0.14
7 | AGUAAGCAAUAUUACGCAUA | -2.31 ± 0.25 | -1.38 ± 0.15
8 | AGUAAGCAAUAUUACGCGAC | -3.46 ± 0.23 | -2.63 ± 0.25
9 | AGUAAGCAAUAUUACGCGUA | -1.73 ± 0.15 | -0.118 ± 0.16
10 | AGUAAGCAAUAUUACGCUUU | -3.63 ± 0.26 | -2.36 ± 0.22
11 | AGUAAGCAAUAUUACGGAAU | -2.75 ± 0.14 | -1.5 ± 0.15
12 | AGUAAGCAAUAUUACGGACC | -0.0938 ± 0.13 | 0.0977 ± 0.16
13 | AGUAAGCAAUAUUACGGGAC | -3.47 ± 0.26 | -2.45 ± 0.26
14 | AGUAAGCAAUAUUACGGUAA | -2.63 ± 0.28 | -1.68 ± 0.15
15 | AGUAAGCAAUAUUACGGUAU | -2.52 ± 0.17 | -1.35 ± 0.13
16 | AGUAAGCAAUAUUACGUGUC | -3.49 ± 0.21 | -2.24 ± 0.2
17 | AGUAAGCAAUAUUACGUUGC | -4.14 ± 0.21 | -2.21 ± 0.17
18 | AGUAAGCAAUAUUACGUUGU | -3 ± 0.099 | -1.97 ± 0.12
19 | AGUCAGCAAUAUUACGAACA | -0.843 ± 0.076 | -0.406 ± 0.11
20 | AGUCAGCAAUAUUACGAAUU | -0.652 ± 0.064 | -0.509 ± 0.076
21 | AGUCAGCAAUAUUACGACGC | 0.144 ± 0.1 | 0.499 ± 0.13
22 | AGUCAGCAAUAUUACGAGAG | -2.88 ± 0.2 | -1.67 ± 0.18
23 | AGUCAGCAAUAUUACGAGCG | -0.195 ± 0.09 | -0.556 ± 0.1
24 | AGUCAGCAAUAUUACGAGGA | -2.97 ± 0.2 | -1.73 ± 0.16

Row | Sequence | self-splicing fitness (ln) (30 °C) | self-splicing fitness (ln) (37 °C)
25 | AGUCAGCAAUAUUACGAGUA | -2.3 ± 0.13 | -1.31 ± 0.1
26 | AGUCAGCAAUAUUACGAGUU | -1.9 ± 0.092 | -0.799 ± 0.077
27 | AGUCAGCAAUAUUACGAUCU | -0.19 ± 0.07 | 0.36 ± 0.09
28 | AGUCAGCAAUAUUACGCACG | -1.02 ± 0.12 | -0.646 ± 0.15
29 | AGUCAGCAAUAUUACGCCAC | -3.68 ± 0.18 | -3.11 ± 0.19
30 | AGUCAGCAAUAUUACGCCUG | -2.49 ± 0.16 | -0.867 ± 0.11
31 | AGUCAGCAAUAUUACGCGAA | -1.21 ± 0.17 | -0.704 ± 0.15
32 | AGUCAGCAAUAUUACGCGCC | -0.491 ± 0.1 | -0.228 ± 0.11
33 | AGUCAGCAAUAUUACGCUAA | -0.794 ± 0.083 | -0.99 ± 0.083
34 | AGUCAGCAAUAUUACGCUAC | -3.7 ± 0.24 | -4.03 ± 0.46
35 | AGUCAGCAAUAUUACGGAAU | -1.84 ± 0.084 | -0.425 ± 0.077
36 | AGUCAGCAAUAUUACGGACG | -0.173 ± 0.07 | 0.0506 ± 0.1
37 | AGUCAGCAAUAUUACGGCCG | -1.28 ± 0.11 | -0.527 ± 0.085
38 | AGUCAGCAAUAUUACGGCUU |  | -1.91 ± 0.29
39 | AGUCAGCAAUAUUACGGGGU | -4.54 ± 0.31 | -1.5 ± 0.15
40 | AGUCAGCAAUAUUACGGUAC | -3 ± 0.16 | -1.88 ± 0.21
41 | AGUCAGCAAUAUUACGGUGC | -1.68 ± 0.14 | -1.07 ± 0.19
42 | AGUCAGCAAUAUUACGGUUC | -2.98 ± 0.11 | -1.51 ± 0.11
43 | AGUCAGCAAUAUUACGUCCC | -1.52 ± 0.22 | 0.485 ± 0.27
44 | AGUCAGCAAUAUUACGUCUA | -0.83 ± 0.072 | -0.792 ± 0.071
45 | AGUCAGCAAUAUUACGUCUU | -0.994 ± 0.095 | -0.306 ± 0.11
46 | AGUCAGCAAUAUUACGUGCG | -0.277 ± 0.078 | -0.317 ± 0.088
47 | AGUCAGCAAUAUUACGUGGC | -2.31 ± 0.16 | -2.21 ± 0.15
48 | AGUCAGCAAUAUUACGUGUC | -2.18 ± 0.13 | -2.11 ± 0.19

Row | Sequence | self-splicing fitness (ln) (30 °C) | self-splicing fitness (ln) (37 °C)
49 | AGUCAGCAAUAUUACGUUAG | -3.63 ± 0.17 | -1.43 ± 0.12
50 | AGUCAGCAAUAUUACGUUCG | -1.9 ± 0.13 | -1.46 ± 0.15
51 | AGUCAGCAAUAUUACGUUUA | -2.23 ± 0.11 | -1.36 ± 0.099
52 | AGUGAGCAAUAUUACGAAAA | -3.16 ± 0.16 | -2.23 ± 0.23
53 | AGUGAGCAAUAUUACGAGUG | -3.75 ± 0.47 | -1.02 ± 0.24
54 | AGUGAGCAAUAUUACGAUAU | -3.14 ± 0.25 | -2.22 ± 0.28
55 | AGUGAGCAAUAUUACGAUGU | -3.64 ± 0.3 | -2.51 ± 0.25
56 | AGUGAGCAAUAUUACGCACA | -1.35 ± 0.1 | -0.91 ± 0.13
57 | AGUGAGCAAUAUUACGCCUG | -3.85 ± 0.29 | -2.38 ± 0.29
58 | AGUGAGCAAUAUUACGCUUU | -4.07 ± 0.32 | -3.04 ± 0.4
59 | AGUGAGCAAUAUUACGGCGG | -1.83 ± 0.31 | -2.29 ± 0.26
60 | AGUGAGCAAUAUUACGGCUU | -2.43 ± 0.17 | -1.72 ± 0.25
61 | AGUGAGCAAUAUUACGGGAG | -5.04 ± 0.41 | -2.38 ± 0.14
62 | AGUGAGCAAUAUUACGGGCA | -1.22 ± 0.3 | -1.73 ± 0.15
63 | AGUGAGCAAUAUUACGUACC | -0.317 ± 0.2 | -0.261 ± 0.28
64 | AGUGAGCAAUAUUACGUACG | -2.22 ± 0.16 | -1.3 ± 0.13
65 | AGUGAGCAAUAUUACGUGAU | -2.87 ± 0.26 | -2.74 ± 0.34
66 | AGUGAGCAAUAUUACGUGCG | -3.31 ± 0.33 | -2.08 ± 0.37
67 | AGUGAGCAAUAUUACGUGUG | -2.69 ± 0.21 | 
68 | AGUGAGCAAUAUUACGUUGA | -2.51 ± 0.13 | -2.75 ± 0.2
69 | AGUGAGCAAUAUUACGUUUA | -3.37 ± 0.45 | -2.04 ± 0.22
70 | AGUUAGCAAUAUUACGAAAU | -2.58 ± 0.13 | -1.62 ± 0.13
71 | AGUUAGCAAUAUUACGACAU | 0.112 ± 0.013 | 0.071 ± 0.033
72 | AGUUAGCAAUAUUACGACCC | -0.338 ± 0.19 | -0.0159 ± 0.49

Row | Sequence | self-splicing fitness (ln) (30 °C) | self-splicing fitness (ln) (37 °C)
73 | AGUUAGCAAUAUUACGAGAC | -3.11 ± 0.26 | -2.02 ± 0.27
74 | AGUUAGCAAUAUUACGAUGC | -1.75 ± 0.2 | -0.0326 ± 0.17
75 | AGUUAGCAAUAUUACGCAAU | -1.6 ± 0.18 | -2.52 ± 0.29
76 | AGUUAGCAAUAUUACGCACC | -1.35 ± 0.15 | -0.000166 ± 0.19
77 | AGUUAGCAAUAUUACGCCGA | -2.78 ± 0.46 | -1.71 ± 0.39
78 | AGUUAGCAAUAUUACGCCGC | -2.09 ± 0.38 | 
79 | AGUUAGCAAUAUUACGCCGU | -1.15 ± 0.099 | -0.939 ± 0.14
80 | AGUUAGCAAUAUUACGCUGU | -2.3 ± 0.14 | -2.01 ± 0.21
81 | AGUUAGCAAUAUUACGCUUU | -2.56 ± 0.13 | -1.09 ± 0.13
82 | AGUUAGCAAUAUUACGGAUU | -1.32 ± 0.14 | -0.035 ± 0.16
83 | AGUUAGCAAUAUUACGGCAG | -0.102 ± 0.13 | -1.48 ± 0.21
84 | AGUUAGCAAUAUUACGGGAG | -4.34 ± 0.39 | -1.65 ± 0.22
85 | AGUUAGCAAUAUUACGGGCC | -2.24 ± 0.21 | -1.61 ± 0.18
86 | AGUUAGCAAUAUUACGGGGG | -2.04 ± 0.27 | -1.38 ± 0.31
87 | AGUUAGCAAUAUUACGGGUA | -2.61 ± 0.39 | -0.0817 ± 0.2
88 | AGUUAGCAAUAUUACGGGUG | -3.86 ± 0.25 | -1.64 ± 0.21
89 | AGUUAGCAAUAUUACGUAAA | -2.85 ± 0.28 | -1.4 ± 0.26
90 | AUAAAGCAAUAUUACGAAGC | -4.43 ± 0.46 | -0.791 ± 0.29
91 | AUAAAGCAAUAUUACGACGA | -0.00868 ± 0.096 | 0.701 ± 0.12
92 | AUAAAGCAAUAUUACGAGGU | -3.99 ± 0.16 | -1.9 ± 0.21
93 | AUAAAGCAAUAUUACGAUAA | -0.405 ± 0.079 | -0.094 ± 0.094
94 | AUAAAGCAAUAUUACGAUAG | -2.82 ± 0.15 | -0.468 ± 0.14
95 | AUAAAGCAAUAUUACGAUGC | -1.39 ± 0.08 | -0.56 ± 0.12
96 | AUAAAGCAAUAUUACGCACG | -0.375 ± 0.083 | -0.0827 ± 0.11
